Patent publication US7064106B2, “Gene and use thereof” (Takeda Chemical Industries, Ltd., priority 1999, dated 2006)
Substitutions are numbered along the chain they refer to.

Assays:
Assay type in all cases: cell-based
[1] = biological target: T1, C-terminal cytoplasmic domain (amino acid numbers 451–492) of mouse GLUT1 (Mus musculus, UniProt P17809); test: Yeast two-hybrid β-galactosidase assay, interaction with glucose transporter; conditions: bait mouse GLUT1 (451–492); prey human MD36 cDNA 2995–3674 fused to GAL4-AD
T1 construct: the C-terminal cytoplasmic domain (amino acid numbers 451–492) of mouse GLUT1; expressed in transfected cells; host or cells: Saccharomyces cerevisiae Y190
T1 sequence (P17809 451-492): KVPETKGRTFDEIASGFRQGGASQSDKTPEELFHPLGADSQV
Protocol: (§1) As the bait sequence, the C-terminal cytoplasmic domain (amino acid numbers 468–510; SEQ ID NO:13 and SEQ ID NO:14) of mouse GLUT4 was used. For control, similar procedures were performed using the C-terminal cytoplasmic domain (amino acid numbers 451–492) of mouse GLUT1, which is the other protein of glucose transporters. These sequences were isolated from the respective cDNAs by PCR using pfu polymerase (manufactured by Stratagene, Inc.) and constructed to be expressed as the fusion proteins in the GAL4-BD sequence of pGBT9 (manufactured by Clontech, Inc.). On the other hand, human MD36 cDNA (base numbers 2995–3674 in SEQ ID NO:3) fused to GAL4-AD was used as the prey sequence. S. Cerevisiae Y190 was transformed by these plasmids, and the binding activity of MD36 to each of the glucose transporters was assayed in terms of the β-galactosidase activity.

[2] = biological target: T2, C-terminal cytoplasmic domain (amino acid numbers 468–510) of mouse GLUT4 (Mus musculus, UniProt P14142); test: as above; conditions: bait mouse GLUT4 (468–510); prey human MD36 cDNA 2995–3674 fused to GAL4-AD
T2 construct: amino acid numbers 468–510; expressed in transfected cells; host or cells: Saccharomyces cerevisiae Y190
T2 sequence (P14142 467-509): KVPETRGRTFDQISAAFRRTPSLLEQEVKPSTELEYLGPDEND
Protocol: as §1

profilin II = biological target: T3, profilin II (Homo sapiens, UniProt P35080); test: Yeast two-hybrid HIS3 growth test, MD36 and profilin family; conditions: S. cerevisiae Y190; 40 mM 3-amino-1,2,4-triazole
T3 construct: expressed in transfected cells; host or cells: Saccharomyces cerevisiae Y190
T3 sequence (P35080 1-140 isoform P35080-2): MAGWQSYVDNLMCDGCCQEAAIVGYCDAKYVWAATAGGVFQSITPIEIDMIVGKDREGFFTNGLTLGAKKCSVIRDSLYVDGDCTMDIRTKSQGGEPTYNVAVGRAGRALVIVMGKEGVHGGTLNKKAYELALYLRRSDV
Source text: (§2) The protein-protein interaction between MD36 and the profilin family was detected by the yeast two-hybrid system. Based on pGBT9 (CLONTECH), expression plasmids were constructed to express the coding regions of profiling I (Evangelista et al., Science, 276, 118–122, 1997; Imamura et al., EMBO J., 16, 2745–2755, 1997; Tanaka, Biochem. Biophys. Res. Commun., 267, 479–481, 2000), profilin II (Schluter et al., Biohim. Biophys. Acta, 1359, 97–109, 1997), and profiling IIL in the form fused to yeast GAL4-DNA-binding domain protein under control of yeast ADH1 promoter. These plasmids were named pG-PFNI, pG-PFNII and pG-PFNIII, respectively (yeast selection marker was TRP1). On the other hand, expression plasmids that express the full-length sequence (SEQ ID NO:1) of MD36, which is IRAP-BP protein, or the coding region from this N-terminus to the sequence (SEQ ID NO:33) including the proline-rich domain in the form fused to yeast […] activated domain protein under control of yeast ADH1 promoter was constructed based on pACT2 (CLONTECH), and named pACT-MD36 and pACT-MD36NT, respectively (yeast selection marker was LEU2). pG-PFNI, pG-PFNII, pG-PFNIII or, pGBT9 for control was co-transfected to yeast Saccharomyces cerevisiae Y190 together with pACT-MD36 or pACT-MD36NT, and yeast strains bearing plasmids from the two were selected on SD medium free of tryptophan and leucine. S. cerevisiae Y190 is originally a histidine auxotrophic strain but when the introduced proteins on the plasmids show the interactions, reporter gene HIS3 is expressed and the strain becomes capable of growing on a histidine-free plate. The yeast strain acquired was spread on tryptophan, leucine and histidine-free SD medium supplemented with 40 mM 3-amino-1,2,4-triazole.

profilin I = test: as above; conditions: S. cerevisiae Y190; 40 mM 3-amino-1,2,4-triazole
Source text: as §2

profilin IIL = biological target: T4, profilin IIL (Homo sapiens, UniProt P35080); test: as above; conditions: S. cerevisiae Y190; 40 mM 3-amino-1,2,4-triazole
T4 construct: expressed in transfected cells; host or cells: Saccharomyces cerevisiae Y190
T4 sequence (P35080 1-140): T3 sequence (P35080 1-140 isoform P35080-2) with A109V, I112F, T123G, E130S, L131M, L133K, R137D, D139G, V140F
Protocol: Using as a template human skeletal muscle-derived cDNA and as an enzyme Pfu polymerase (STRATAGENE), the reaction was carried out at 95° C. for 30 seconds, at 65° C. for 45 seconds and at 72° C. for 60 seconds, for 35 cycles. As a result of PCR, the DNA fragment of 745 bp was found, in addition to the DNA fragment of 423 bp or profilin II, and named profilin IIL. The base sequence for cDNA of profilin IIL is shown by SEQ ID NO:29, and the amino acid sequence of profilin II is shown by SEQ ID NO:28.
The protein-protein interaction between MD36 and the profilin family was detected by the yeast two-hybrid system. Based on pGBT9 (CLONTECH), expression plasmids were constructed to express the coding regions of profiling I (Evangelista et al., Science, 276, 118–122, 1997; Imamura et al., EMBO J., 16, 2745–2755, 1997; Tanaka, Biochem. Biophys. Res. Commun., 267, 479–481, 2000), profilin II (Schluter et al., Biohim. Biophys. Acta, 1359, 97–109, 1997), and profiling IIL in the form fused to yeast GAL4-DNA-binding domain protein under control of yeast ADH1 promoter. These plasmids were named pG-PFNI, pG-PFNII and pG-PFNIII, respectively (yeast selection marker was TRP1). […]

B1: MD36: human skeletal muscle-derived IRAP binding protein, SEQ ID NO:1; C-terminal part (bases 2995–3674) used in binding tests (protein, listed as Homo sapiens)
chain: MAGGEDRGDGEPVSVVTVRVQYLEDTDPFACANFPEPRRAPTCSLDGALPLGAQIPAVHRLLGAPLKLEDCALQVSPSGYYLDTELSLEEQREMLEGFYEEISKGRKPTLILRTQLSVRVNAILEKLYSSSGPELRRSLFSLKQIFQEDKDLVPEFVHSEGLSCLIRVGAAADHNYQSYILRALGQLMLFVDGMLGVVAHSDTIQWLYTLCASLSRLVVKTALKLLLVFVEYSENNAPLFIRAVNSVASTTGAPPWANLVSILEEKNGADPELLVYTVTLINKTLAALPDQDSFYDVTDALEQQGMEALVQRHLGTAGTDVDLRTQLVLYENALKLEDGDIEEAPGAGGRRERRKPSSEEGKRSRRSLEGGGCPARAPEPGPTGPASPVGPTSSTGPALLTGPASSPVGPPSGLQASVNLFPTISVAPSADTSSERSIYKLHQTASVWAPESPPVPQSPPGQARLEARFLENVAAAETEKQVALAQGRAETLAGAMPNEAGGHPDARQLWDSPETAPAARTPQSPAPCVLLRAQRSLAPEPKEPLIPASPKAEPIWELPTRAPRLSIGDLDFSDLGEDEDQDMLNVESVEAGKDIPAPSPPLPLLSGVPPPPPLPPPPPIKGPFPPPPPLPLAAPLPHSVPDSSALPTKRKTVKLFWRELKLAGGHGVSASRFGPCATLWASLDPVSVDTARLEHLFESRAKEVLPSKKAGEGRRTMTTVLDPKRSNAINIGLTTLPPVHVIKAALLNFDEFAVSKDGIEKLLTMMPTEEERQKIEEAQLANPDIPLGPAENFLMTLASIGGLAARLQLWAFKLDYDSMEREIAEPLFDLKVGMEQLVQNATFRCILATLLAVGNFLNGSQSSGFELSYLEKVSEVKDTVRRQSLLHHLCSLVLQTRPESSDLYSEIPALTRCAKVDFEQLTENLGQLERRSRAAEESLRSLAKHELAPALRARLTHFLDQCARRVAMLRIVHRRVCNRFHAFLLYLGYTPQAAREVRIMQFCHTLREFALEYRTCRERVLQQQQKQATYRERNKTRGRMITETEKFSGVAGEAPSNPSVPVAVSSGPGRGDADSHASMKSLLTSRPEDTTHNRRSRGMVQSSSPIMPTVGPSTASPEEPPGSSLPSDTSDEIMDLLVQSVTKSSPRALAARERKRSRGNRKSLRRTLKSGLGDDLVQALGLSKGPGLEV
binding activity of MD36 to glucose transporter in terms of β-galactosidase activity [1]: scarcely bound | binding activity of MD36 to glucose transporter in terms of β-galactosidase activity [2]: bound | growth of yeast on tryptophan, leucine and histidine-free SD medium (profilin II): did not grow | growth of yeast on tryptophan, leucine and histidine-free SD medium (profilin I): did not grow | growth of yeast on tryptophan, leucine and histidine-free SD medium (profilin IIL): Growth of the yeast was noted
